Experimental data reported in article PMC9636267 (Communications Biology, 2022).

Target: T1, HCoV-229E S ectodomain (17–1115 aa), 229E S trimer (human coronavirus 229E, UniProt P15423 17-1115)
T1 sequence (looked up): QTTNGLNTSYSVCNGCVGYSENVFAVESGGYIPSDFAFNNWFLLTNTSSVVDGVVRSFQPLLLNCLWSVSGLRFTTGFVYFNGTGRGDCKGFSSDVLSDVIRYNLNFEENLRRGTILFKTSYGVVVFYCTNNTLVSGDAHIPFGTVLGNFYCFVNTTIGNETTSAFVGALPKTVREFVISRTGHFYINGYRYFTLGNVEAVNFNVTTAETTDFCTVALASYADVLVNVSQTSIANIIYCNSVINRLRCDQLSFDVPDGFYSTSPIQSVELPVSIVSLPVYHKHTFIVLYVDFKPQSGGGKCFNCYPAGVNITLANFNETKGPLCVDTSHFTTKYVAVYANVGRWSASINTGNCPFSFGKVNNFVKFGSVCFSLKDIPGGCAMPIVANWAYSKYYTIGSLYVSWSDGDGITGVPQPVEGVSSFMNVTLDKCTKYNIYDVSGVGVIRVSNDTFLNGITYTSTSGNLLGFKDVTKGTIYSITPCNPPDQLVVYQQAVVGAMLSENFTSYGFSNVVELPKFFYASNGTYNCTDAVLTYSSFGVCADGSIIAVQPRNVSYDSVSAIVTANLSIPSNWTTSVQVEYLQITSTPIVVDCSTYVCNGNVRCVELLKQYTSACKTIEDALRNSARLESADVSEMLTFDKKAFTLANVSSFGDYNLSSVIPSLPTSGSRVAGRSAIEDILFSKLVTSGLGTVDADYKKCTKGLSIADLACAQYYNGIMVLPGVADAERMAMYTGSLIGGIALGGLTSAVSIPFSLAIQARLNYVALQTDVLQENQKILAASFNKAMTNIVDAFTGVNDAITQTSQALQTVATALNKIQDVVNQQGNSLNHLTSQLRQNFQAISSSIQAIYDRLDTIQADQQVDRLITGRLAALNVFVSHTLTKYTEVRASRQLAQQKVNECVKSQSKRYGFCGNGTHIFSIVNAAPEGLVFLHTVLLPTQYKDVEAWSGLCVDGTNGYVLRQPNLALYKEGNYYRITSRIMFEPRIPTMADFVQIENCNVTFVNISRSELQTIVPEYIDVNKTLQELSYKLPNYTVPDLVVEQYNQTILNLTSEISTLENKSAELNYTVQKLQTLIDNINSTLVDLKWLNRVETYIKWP
Assay: SPR
Settings: both partners purified

B1: human aminopeptidase N (hAPN), soluble ectodomain (66–967 aa) (receptor, UniProt P15144 66-967, looked up)
chain: DQSKAWNRYRLPNTLKPDSYRVTLRPYLTPNDRGLYVFKGSSTVRFTCKEATDVIIIHSKKLNYTLSQGHRVVLRGVGGSQPPDIDKTELVEPTEYLVVHLKGSLVKDSQYEMDSEFEGELADDLAGFYRSEYMEGNVRKVVATTQMQAADARKSFPCFDEPAMKAEFNITLIHPKDLTALSNMLPKGPSTPLPEDPNWNVTEFHTTPKMSTYLLAFIVSEFDYVEKQASNGVLIRIWARPSAIAAGHGDYALNVTGPILNFFAGHYDTPYPLPKSDQIGLPDFNAGAMENWGLVTYRENSLLFDPLSSSSSNKERVVTVIAHELAHQWFGNLVTIEWWNDLWLNEGFASYVEYLGADYAEPTWNLKDLMVLNDVYRVMAVDALASSHPLSTPASEINTPAQISELFDAISYSKGASVLRMLSSFLSEDVFKQGLASYLHTFAYQNTIYLNLWDHLQEAVNNRSIQLPTTVRDIMNRWTLQMGFPVITVDTSTGTLSQEHFLLDPDSNVTRPSEFNYVWIVPITSIRDGRQQQDYWLIDVRAQNDLFSTSGNEWVLLNLNVTGYYRVNYDEENWRKIQTQLQRDHSAIPVINRAQIINDAFNLASAHKVPVTLALNNTLFLIEERQYMPWEAALSSLSYFKLMFDRSEVYGPMKNYLKKQVTPLFIHFRNNTNNWREIPENLMDQYSEVNAISTACSNGVPECEEMVSGLFKQWMENPNNNPIHPNLRSTVYCNAIAQGGEEEWDFAWEQFRNATLVNEADKLRAALACSKELWILNRYLSYTLNPDLIRKQDATSTIISITNNVIGQGLVWDFVQSNWKKLFNDYGGGSFSFSNLIQAVTRRFSTEYELQQLEQFKKDNEETGFGSGTRALEQALEKTKANIKWVKENKEVVLQWFTENSK
notes: also called recombinant hAPN protein
binding result: binds
